{"source": "paper PMC6294257", "about": "“Osteocalcin triggers Fas/FasL-mediated necroptosis in adipocytes via activation of p300” (Cell Death & Disease, 2018)", "molecular_target": "the molecule itself", "experiment": "non-reducing SDS-PAGE and immunoblot; 3T3-L1 adipocytes incubated with GluOC for 24 h; cell lysates prepared in the absence of 2-mercaptoethanol; immunoblot with antibodies to MLKL", "data": [{"protein": "mixed-lineage kinase domain-like protein (MLKL) (natural protein, mouse (endogenous in 3T3-L1), UniProt Q9D2Y4 1-472, looked up, mixed-lineage kinase domain-like protein (MLKL), endogenous in 3T3-L1 adipocytes treated with GluOC; High-dose GluOC induces phosphorylation of MLKL, printed as Thr357/Ser358; these numbers may be those of human MLKL although the cells are mouse; source: endogenous, 3T3-L1 adipocyte lysate) MDKLGQIIKLGQLIYEQCEKMKYCRKQCQRLGNRVHGLLQPLQRLQAQGKKNLPDDITAALGRFDEVLKEANQQIEKFSKKSHIWKFVSVGNDKILFHEVNEKLRDVWEELLLLLQVYHWNTVSDVSQPASWQQEDRQDAEEDGNENMKVILMQLQISVEEINKTLKQCSLKPTQEIPQDLQIKEIPKEHLGPPWTKLKTSKMSTIYRGEYHRSPVTIKVFNNPQAESVGIVRFTFNDEIKTMKKFDSPNILRIFGICIDQTVKPPEFSIVMEYCELGTLRELLDREKDLTMSVRSLLVLRAARGLYRLHHSETLHRNISSSSFLVAGGYQVKLAGFELSKTQNSISRTAKSTKAERSSSTIYVSPERLKNPFCLYDIKAEIYSFGIVLWEIATGKIPFEGCDSKKIRELVAEDKKQEPVGQDCPELLREIINECRAHEPSQRPSVDGRSLSGRERILERLSAVEESTDKKV", "values": [{"measurement": "stoichiometry N", "value": 3}]}]}
